# According to the supplement of paper PMC10065799, “High-throughput profiling of sequence recognition by tyrosine kinases and SH2 domains using bacterial peptide display” (eLife, 2023):
# Experiments:
# [1] = target: c-Src SH2; experiment: SH2 binding enrichment of the phosphorylated peptide, bacterial display (enrichment ratio); higher = better substrate or ligand; peptides without Tyr show the background
# [2] = target: SHP2-C SH2; experiment: as above
# [3] = target: Grb2 SH2 (UniProt P62993); experiment: as above
# [4] = target: EPHB1 (UniProt P54762); experiment: phosphorylation enrichment, bacterial display (enrichment ratio); higher = better substrate or ligand; peptides without Tyr show the background
# [5] = target: FGFR1 (UniProt P11362); experiment: as above
# [6] = target: FGFR3 (UniProt P22607); experiment: as above
# [7] = tested on: c-Src; experiment: as above
# [8] = tested on: c-Abl (mouse); experiment: as above
# [9] = target: EPHB2 (UniProt P29323); experiment: as above
# [10] = target: Fyn (UniProt P06241); experiment: as above
# [11] = tested on: Fer (mouse); experiment: as above
# [12] = target: Jak2 (UniProt O60674); experiment: as above
# [13] = target: MERTK (UniProt Q12866); experiment: as above
# [14] = tested on: AncSZ; experiment: as above
# [15] = target: Hck (UniProt P08631); experiment: as above
# [16] = target: Fes (UniProt P07332); experiment: as above
# 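For SH2 binding enrichment of the phosphorylated peptide, bacterial display in this document: peptide library displayed on the E. coli surface as eCPX fusions, selected cells deep-sequenced, score is each peptide's frequency after selection divided by its frequency in the input.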
# 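For phosphorylation enrichment, bacterial display in this document: 11-residue human phosphosite peptides and single-mutation variants displayed on the E. coli surface, counted by deep sequencing, each peptide's frequency after selection divided by its frequency in the unselected input library; frequency after pTyr selection over input frequency; kinase dosed for 20-30% of maximal phosphorylation in three min.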
# Chain of Jak2 (O60674 whole entry, looked up): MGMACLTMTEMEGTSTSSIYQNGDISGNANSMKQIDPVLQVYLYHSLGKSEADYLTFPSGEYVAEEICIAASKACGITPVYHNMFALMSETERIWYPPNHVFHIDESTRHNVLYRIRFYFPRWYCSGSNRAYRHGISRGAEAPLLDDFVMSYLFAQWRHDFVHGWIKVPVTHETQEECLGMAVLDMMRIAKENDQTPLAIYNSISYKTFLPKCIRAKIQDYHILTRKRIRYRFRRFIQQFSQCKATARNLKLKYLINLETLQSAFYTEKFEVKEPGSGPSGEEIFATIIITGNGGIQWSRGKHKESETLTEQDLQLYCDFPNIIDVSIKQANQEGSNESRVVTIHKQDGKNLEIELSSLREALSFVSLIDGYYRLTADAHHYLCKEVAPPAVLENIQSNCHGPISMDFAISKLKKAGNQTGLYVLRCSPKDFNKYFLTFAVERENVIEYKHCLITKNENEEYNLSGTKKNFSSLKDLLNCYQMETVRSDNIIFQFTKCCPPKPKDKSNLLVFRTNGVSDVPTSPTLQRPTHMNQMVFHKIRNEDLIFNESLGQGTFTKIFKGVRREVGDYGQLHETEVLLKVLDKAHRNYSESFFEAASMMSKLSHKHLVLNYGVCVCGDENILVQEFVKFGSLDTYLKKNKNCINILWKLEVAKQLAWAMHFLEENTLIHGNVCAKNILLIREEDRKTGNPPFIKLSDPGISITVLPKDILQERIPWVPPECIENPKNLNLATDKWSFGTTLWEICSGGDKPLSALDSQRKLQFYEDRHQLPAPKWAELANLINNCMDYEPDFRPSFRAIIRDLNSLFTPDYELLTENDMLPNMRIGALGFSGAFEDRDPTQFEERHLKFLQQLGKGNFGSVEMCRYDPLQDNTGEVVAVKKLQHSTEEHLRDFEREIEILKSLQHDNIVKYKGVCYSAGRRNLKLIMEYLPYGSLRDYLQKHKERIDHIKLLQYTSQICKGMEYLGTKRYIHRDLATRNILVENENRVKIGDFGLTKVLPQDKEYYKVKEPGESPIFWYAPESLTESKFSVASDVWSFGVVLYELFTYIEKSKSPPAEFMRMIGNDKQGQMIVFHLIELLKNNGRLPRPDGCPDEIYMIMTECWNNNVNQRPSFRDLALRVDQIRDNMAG
# Chain of MERTK (Q12866 whole entry, looked up): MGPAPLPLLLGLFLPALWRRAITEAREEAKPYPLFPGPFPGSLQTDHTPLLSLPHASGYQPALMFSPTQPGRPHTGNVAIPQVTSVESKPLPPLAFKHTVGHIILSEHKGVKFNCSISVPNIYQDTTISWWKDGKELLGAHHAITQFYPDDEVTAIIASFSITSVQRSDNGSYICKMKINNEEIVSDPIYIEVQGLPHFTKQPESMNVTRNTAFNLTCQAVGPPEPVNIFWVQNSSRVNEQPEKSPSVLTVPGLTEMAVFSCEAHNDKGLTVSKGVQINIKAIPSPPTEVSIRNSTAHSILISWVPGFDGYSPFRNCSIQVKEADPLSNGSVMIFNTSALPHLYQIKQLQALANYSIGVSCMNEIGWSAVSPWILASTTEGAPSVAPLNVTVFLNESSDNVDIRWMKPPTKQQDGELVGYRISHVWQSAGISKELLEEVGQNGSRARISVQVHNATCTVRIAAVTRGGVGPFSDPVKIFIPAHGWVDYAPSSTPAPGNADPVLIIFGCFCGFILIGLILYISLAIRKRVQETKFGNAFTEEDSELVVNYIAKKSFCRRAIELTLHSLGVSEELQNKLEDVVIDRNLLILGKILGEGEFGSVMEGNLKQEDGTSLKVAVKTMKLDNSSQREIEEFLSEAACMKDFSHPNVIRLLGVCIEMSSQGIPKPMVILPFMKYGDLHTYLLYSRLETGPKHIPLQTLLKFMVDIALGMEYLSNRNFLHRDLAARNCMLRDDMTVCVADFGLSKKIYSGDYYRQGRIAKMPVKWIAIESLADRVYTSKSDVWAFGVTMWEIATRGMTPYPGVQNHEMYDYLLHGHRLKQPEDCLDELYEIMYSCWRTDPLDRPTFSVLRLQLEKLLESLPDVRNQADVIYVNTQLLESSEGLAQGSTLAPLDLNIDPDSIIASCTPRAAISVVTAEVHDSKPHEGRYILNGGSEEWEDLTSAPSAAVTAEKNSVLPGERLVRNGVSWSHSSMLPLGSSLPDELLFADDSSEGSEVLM
# Chain of Hck (P08631 whole entry, looked up): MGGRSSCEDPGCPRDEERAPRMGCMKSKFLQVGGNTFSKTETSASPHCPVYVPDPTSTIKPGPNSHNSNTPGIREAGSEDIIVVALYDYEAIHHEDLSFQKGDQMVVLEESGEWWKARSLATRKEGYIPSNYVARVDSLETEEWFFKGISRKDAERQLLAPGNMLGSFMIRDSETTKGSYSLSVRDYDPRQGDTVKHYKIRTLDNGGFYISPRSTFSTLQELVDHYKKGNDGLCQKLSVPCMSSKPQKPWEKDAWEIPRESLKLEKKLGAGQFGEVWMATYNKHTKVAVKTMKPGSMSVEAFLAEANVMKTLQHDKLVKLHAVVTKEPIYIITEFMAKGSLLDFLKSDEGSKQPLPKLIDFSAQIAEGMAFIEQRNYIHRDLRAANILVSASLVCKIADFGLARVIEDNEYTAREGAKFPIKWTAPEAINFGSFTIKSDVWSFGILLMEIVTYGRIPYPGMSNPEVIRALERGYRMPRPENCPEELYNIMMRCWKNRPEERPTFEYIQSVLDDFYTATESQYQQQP
# Chain of Fes (P07332 whole entry, looked up, the tested form may be a part): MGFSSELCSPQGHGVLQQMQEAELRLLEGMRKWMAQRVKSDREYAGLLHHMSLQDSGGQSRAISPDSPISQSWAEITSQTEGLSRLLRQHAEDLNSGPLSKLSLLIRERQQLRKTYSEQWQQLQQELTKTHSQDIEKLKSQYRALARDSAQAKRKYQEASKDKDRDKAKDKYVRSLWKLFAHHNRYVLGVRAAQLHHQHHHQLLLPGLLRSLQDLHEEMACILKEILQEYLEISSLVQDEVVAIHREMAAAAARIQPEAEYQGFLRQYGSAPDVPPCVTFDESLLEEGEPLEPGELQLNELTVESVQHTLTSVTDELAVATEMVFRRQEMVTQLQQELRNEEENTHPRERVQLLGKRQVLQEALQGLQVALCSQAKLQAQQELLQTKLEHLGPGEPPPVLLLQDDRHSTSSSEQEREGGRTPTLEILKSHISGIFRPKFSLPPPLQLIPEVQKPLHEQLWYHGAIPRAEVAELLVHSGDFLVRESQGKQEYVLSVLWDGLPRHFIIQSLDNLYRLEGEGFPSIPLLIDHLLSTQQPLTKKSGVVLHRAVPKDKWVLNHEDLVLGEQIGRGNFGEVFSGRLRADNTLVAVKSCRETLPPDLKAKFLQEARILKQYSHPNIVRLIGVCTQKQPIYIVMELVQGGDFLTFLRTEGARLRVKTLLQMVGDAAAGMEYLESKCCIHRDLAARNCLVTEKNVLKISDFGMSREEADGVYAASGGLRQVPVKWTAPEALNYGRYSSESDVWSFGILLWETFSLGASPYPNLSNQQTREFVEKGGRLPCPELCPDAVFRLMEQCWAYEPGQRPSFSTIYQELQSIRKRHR
# Chain of FGFR1 (P11362 whole entry, looked up): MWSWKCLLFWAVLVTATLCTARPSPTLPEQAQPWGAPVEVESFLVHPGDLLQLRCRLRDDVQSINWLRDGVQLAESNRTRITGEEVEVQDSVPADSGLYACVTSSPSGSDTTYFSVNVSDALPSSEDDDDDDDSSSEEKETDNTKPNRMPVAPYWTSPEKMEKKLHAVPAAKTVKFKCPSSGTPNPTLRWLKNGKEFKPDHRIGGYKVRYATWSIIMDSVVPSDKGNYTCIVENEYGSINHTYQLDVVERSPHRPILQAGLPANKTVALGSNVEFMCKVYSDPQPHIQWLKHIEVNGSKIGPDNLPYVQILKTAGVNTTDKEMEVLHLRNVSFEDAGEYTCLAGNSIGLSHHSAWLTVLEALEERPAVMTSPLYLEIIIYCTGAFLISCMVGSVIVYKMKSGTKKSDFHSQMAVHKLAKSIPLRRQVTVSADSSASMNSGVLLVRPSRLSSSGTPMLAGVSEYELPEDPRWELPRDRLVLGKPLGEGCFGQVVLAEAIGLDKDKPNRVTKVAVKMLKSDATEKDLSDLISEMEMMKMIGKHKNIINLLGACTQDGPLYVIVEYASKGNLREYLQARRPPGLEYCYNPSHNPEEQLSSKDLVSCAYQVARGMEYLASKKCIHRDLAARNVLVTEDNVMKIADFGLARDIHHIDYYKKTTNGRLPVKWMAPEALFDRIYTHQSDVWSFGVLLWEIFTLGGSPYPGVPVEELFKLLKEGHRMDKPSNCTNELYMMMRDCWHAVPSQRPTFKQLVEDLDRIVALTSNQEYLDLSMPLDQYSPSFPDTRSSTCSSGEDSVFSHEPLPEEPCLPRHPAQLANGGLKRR
# Chain of Grb2 SH2 (P62993 whole entry, looked up): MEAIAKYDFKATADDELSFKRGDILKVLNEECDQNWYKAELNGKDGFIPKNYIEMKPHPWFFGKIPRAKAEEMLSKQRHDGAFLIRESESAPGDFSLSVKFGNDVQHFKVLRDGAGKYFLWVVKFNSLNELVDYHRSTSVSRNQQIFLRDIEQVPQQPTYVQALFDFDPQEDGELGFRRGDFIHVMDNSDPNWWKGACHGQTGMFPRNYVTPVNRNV
# Chain of Fyn (P06241 whole entry, looked up): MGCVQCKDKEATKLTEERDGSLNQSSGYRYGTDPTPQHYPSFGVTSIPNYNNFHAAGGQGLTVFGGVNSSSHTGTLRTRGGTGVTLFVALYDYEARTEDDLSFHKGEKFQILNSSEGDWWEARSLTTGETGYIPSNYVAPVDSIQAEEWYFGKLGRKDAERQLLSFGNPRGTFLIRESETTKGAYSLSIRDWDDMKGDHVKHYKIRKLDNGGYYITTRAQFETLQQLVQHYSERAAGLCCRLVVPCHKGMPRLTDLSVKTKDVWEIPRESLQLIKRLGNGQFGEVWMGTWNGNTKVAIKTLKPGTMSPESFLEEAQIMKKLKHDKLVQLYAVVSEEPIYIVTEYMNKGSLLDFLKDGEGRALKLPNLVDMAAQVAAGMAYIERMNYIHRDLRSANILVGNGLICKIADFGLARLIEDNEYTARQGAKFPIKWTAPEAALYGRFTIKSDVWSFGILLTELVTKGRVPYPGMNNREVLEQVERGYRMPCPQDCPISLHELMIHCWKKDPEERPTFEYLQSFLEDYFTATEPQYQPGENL
Sequence,SH2 binding enrichment [1],SH2 binding enrichment [2],SH2 binding enrichment [3],phosphorylation enrichment [4],phosphorylation enrichment [5],phosphorylation enrichment [6],phosphorylation enrichment [7],phosphorylation enrichment [8],phosphorylation enrichment [9],phosphorylation enrichment [10],phosphorylation enrichment [11],phosphorylation enrichment [12],phosphorylation enrichment [13],phosphorylation enrichment [14],phosphorylation enrichment [15],phosphorylation enrichment [16]
RDVEQYVNNVN [PCDH19_Y1097_L1094V],0.621,0.541,2.37,0.545,0.544,0.701,0.398,1.02,0.594,0.577,0.454,0.855,0.522,0.928,0.645,0.93
REGKIYEFNQV [ZNF665_Y162_H157R_YF],0.465,0.589,0.923,0.356,0.46,0.886,2.08,0.718,0.795,4.78,14.3,0.432,2.64,0.795,1.24,0.758
REGKIYEYNQV [ZNF665_Y162_H157R],1.56,0.611,0.84,0.716,0.707,0.898,1.19,1.07,0.929,1.41,15.9,0.494,3.19,0.799,1.12,0.788
RFGRKYKKVRF [F8_Y442_I438F],0.374,0.564,0.724,0.572,0.653,0.651,0.988,0.806,0.551,0.82,0.619,0.884,1.04,0.708,0.674,0.841
RFLERYIFNRE [HLA-DPB1_Y57_YF],1.46,1.09,1.54,0.324,0.329,0.543,0.432,0.627,0.363,0.311,0.356,0.748,0.409,0.786,0.44,0.914
RFLRGYEQDAY [HLA-A_Y137_R138E],0.981,0.87,1.03,0.358,0.6,0.57,0.407,0.478,0.448,0.525,0.289,0.807,0.304,0.71,0.42,0.969
RFLRGYQQDAY [HLA-A_Y137_R138Q],0.43,0.713,0.631,0.519,0.548,0.633,0.715,0.843,0.535,0.349,0.64,0.803,0.665,0.894,0.404,0.81
RFLRGYRQHAF [HLA-A_Y137_D140H_YF],0.495,0.284,0.636,0.64,0.564,0.701,0.805,1.02,0.599,0.648,0.598,0.933,0.706,0.606,0.581,1.34
RFVFFYSFLLK [PTEN_Y178_YF],0.552,1.43,1.45,0.748,0.731,0.9,1.05,1.45,0.502,0.623,0.612,1.64,0.539,1.44,0.509,1.65
RGDCTYAPLLG [AR_Y269_M268T],0.896,0.594,0.88,8.38,1.42,1.26,6.35,2.55,9.28,8.94,1.33,1.18,7.45,1.21,9.33,1.46
RGDSAYHSQRH [ERBB3_Y1132],0.819,0.65,1.11,0.534,0.401,0.427,0.462,0.453,0.469,0.455,0.569,0.288,0.357,0.51,0.305,0.731
RGESFYQDRMN [RARS_Y338],0.461,0.725,0.794,0.463,0.534,0.512,0.541,0.726,0.392,0.411,0.603,0.899,0.469,0.746,0.631,0.996
RGYRQDAYDGK [HLA-A_Y140],0.517,0.458,1.3,0.519,0.641,0.509,0.526,0.859,0.546,0.671,0.764,0.859,0.436,0.773,0.591,0.677
RISGVYKLPPD [ANGPTL7_Y145],0.525,0.857,1.02,0.511,0.623,0.801,0.827,0.838,0.586,1,0.5,0.785,0.719,0.9,0.572,0.852
RISRKYKKVRF [F8_Y442_G439S],0.391,0.636,0.461,0.891,0.986,0.749,0.749,0.711,1.07,0.721,0.759,0.64,0.805,0.879,0.571,0.883
RIVRKYKKVRF [F8_Y442_G439V],0.477,0.503,0.652,0.699,0.647,0.765,0.87,0.687,0.84,0.823,0.93,0.65,0.824,0.964,0.547,0.78
